This note sets out measurements from article PMC3166062, “Self-Association of an Activating Natural Killer Cell Receptor, KIR2DS1” (PLoS ONE, 2011).

The data set deals with the molecule itself. The experiment in a line: dynamic light scattering; KIR2DS1 3 µM in 10 mM Tris-HCl, 150 mM sodium chloride, 0.4 mM sodium azide, 25°C; Zetasizer Nano ZS; mean hydrodynamic diameter 320 nm.

B1: extracellular region of KIR2DS1 (domain or fragment)
chain: MAHEGVHRKPSLLAHPGRLVKSEETVILQCWSDVMFEHFLLHREGMFNDTLRLIGEHHDGVSKANFSISRMRQDLAGTYRCYGSVTHSPYQLSAPSDPLDIVIIGLYEKPSLSAQPGPTVLAGENVTLSCSSRSSYDMYHLSREGEAHERRLPAGTKVNGTFQANFPLGPATHGGTYRCFGSFRDSPYEWSKSSDPLLVSVTLVPRGS
notes: No cleavage of the tag is described; also called extracellular portion of KIR2DS1
For the protein B1, the binding result is given as “binds”.
